Test results: US20240392020A1 (JIANGSU HENGRUI PHARMACEUTICALS, published 2024)
Blank lines part the entries; values can stand above or below the binder they belong to.

What was measured:
hTSLP = target: T1, hTSLP (human, UniProt Q969D9 29-159); assay: ELISA
T1 construct: bought
Procedure: (§1) For an antibody targeting a soluble protein, the binding activity of the antibody against the soluble protein was detected by ELISA. […] After the blocking was completed, the blocking solution was discarded; and the plate was washed 3 times with a PBST buffer (pH 7.4, PBS containing 0.1% tween-20). 100 μL of the antibody solution diluted in a gradient was added to each well, and the mixture was incubated at 37° C. for 1 h. After the incubation was completed, the plate was washed 3 times with PBST. […] The plate was washed 3 times with PBST. […] The reaction was stopped by adding 50 μL of 1 M H₂SO₄ to each well. The absorbance values at 450 nm were read on a microplate reader, the binding curves of the antibodies to an antigen were fitted with software, and the EC₅₀ values were calculated.

hBAFF [1] = target: T2, hBAFF (human, UniProt Q9Y275 134-285); assay: ELISA
T2 construct: bought
Procedure: as §1

hP40 [2] = target: T3, hP40 (human, UniProt P29460 23-328); assay: ELISA
T3 construct: bought
T3 sequence (looked up): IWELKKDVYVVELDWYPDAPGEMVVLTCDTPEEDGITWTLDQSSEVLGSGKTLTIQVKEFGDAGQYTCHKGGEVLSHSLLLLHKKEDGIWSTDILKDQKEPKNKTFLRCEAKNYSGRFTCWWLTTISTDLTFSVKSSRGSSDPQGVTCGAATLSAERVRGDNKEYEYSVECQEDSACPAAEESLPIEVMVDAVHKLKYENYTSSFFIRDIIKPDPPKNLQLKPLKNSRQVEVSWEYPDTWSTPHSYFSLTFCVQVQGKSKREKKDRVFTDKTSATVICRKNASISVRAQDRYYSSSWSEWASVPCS
Procedure: as §1

hBAFF [3] = target: T2, hBAFF; assay: SPR Biacore T200, antibody captured on Protein A chip
Procedure: (§2) The affinity of a test antibody for an antigen protein was determined by using a Biacore T200 (GE) instrument. […] The data obtained from the experiment was fitted with BIAevaluation version 4.1, GE software using a (1:1) Langmuir model to obtain affinity values.

hP40 [4] = target: T3, hP40; assay: as above
Procedure: as §2

EC50 (hTSLP): 80 pM
B1: J0 (antibody, human IgG1, lambda)
heavy: not shown
light: SYELTQPLSVSVALGQTARITCSGDNIGSKYVHWYQQKPGQAPVLVIYGDNERPSGIPERFSGSNSGNTATLTISRAQAGDEADYYCQAADWVDFYVFGGGTKLTVLGQPKAAPSVTLFPPSSEELQANKATLVCLISDFYPGAVTVAWKADSSPVKAGVETTTPSKQSNNKYAASSYLSLTPEQWKSHRSYSCQVTHEGSTVEKTVAPTECS

EC50 (hBAFF [1]): 356 pM
EC50 (hP40 [2]): 84 pM
Kd (hBAFF [3]): 499 pM
koff (hBAFF [3]): 0.000169 s⁻¹
kon (hBAFF [3]): 338000 M⁻¹ s⁻¹
Kd (hP40 [4]): 34.9 pM
koff (hP40 [4]): 4.81e-05 s⁻¹
kon (hP40 [4]): 1.38e+06 M⁻¹ s⁻¹
B2: BU1 (bispecific antibody, human IgG1, lambda, L234A L235A)
heavy 1: not shown
light 1: SSELTQDPAVSVALGQTVRVTCQGDSLRSYYASWYQQKPGQAPVLVIYGKNNRPSGIPDRFSGSSSGNTASLTITGAQAEDEADYYCSSRDSSGNHWVFGGGTELTVLGQPKAAPSVTLFPPSSEELQANKATLVCLISDFYPGAVTVAWKADSSPVKAGVETTTPSKQSNNKYAASSYLSLTPEQWKSHRSYSCQVTHEGSTVEKTVAPTECS
heavy 2: EVQLVQSGAEVKKPGESLKISCKGSGYSFTTYWLGWVRQMPGKGLDWIGIMSPVDSDIRYSPSFQGQVTMSVDKSITTAYLQWNSLKASDTAMYYCARRRPGQGYFDFWGQGTLVTVSSGGGGSGIPPKIECLPSDISIDEGKVLTVASAFTGEPTPEVTWSTGGRKIHSQEQGRFHIESTEDLTTLIISDVQKQDGGLYSLSLGNEFGSDSATVNIHIRSIDKTHTCPPCPAPEAAGGPSVFLFPPKPKDTLMISRTPEVTCVVVDVSHEDPEVKFNWYVDGVEVHNAKTKPREEQYNSTYRVVSVLTVLHQDWLNGKEYKCKVSNKALPAPIEKTISKAKGQPREPQVCTLPPSREEMTKNQVSLSCAVKGFYPSDIAVEWESNGQPENNYKTTPPVLDSDGSFFLVSKLTVDKSRWQQGNVFSCSVMHEALHNHYTQKSLSLSPGK
light 2: DIQMTQSPSSLSASVGDRVTITCRASQGISSWLAWYQQKPEKAPKSLIYAASSLQSGVPSRFSGSGSGTDFTLTISSLQPEDFATYYCQQYNIYPYTFGQGTKLEIKGGGGSSGAPRFLTRPLSYVVSVGKDASLSSQIVGNPTPQVSWEKDQLPVTAGARFRLAQDGDLYRLKILDLQLSDSGQYVSRARNAIGEAFACVGLEVGAEA

EC50 (hTSLP): 179000 pM
B3: J2 (antibody)
heavy: not shown
light: SYELTQPLSVSVALGQTARITCSGDNIGSKYVHWYQQKPGQAPVLVIYGDNERPSGIPERFSGSNSGNTATLTISRAQAGDEADYYCQAADWVDFYVFGGGTKLTVLFDPVYKVKPNPPHNLSVINSEELSSILKLTWTNPSIKSVIILKYNIQYRTKDASTWSQIPPEDTASTRSSFTVQDLKPFTEYVFRIRCMKEDGKGYWSDWSEEASGIT

EC50 (hTSLP): 250 pM
B4: J3 (antibody)
heavy: not shown
light: SYELTQPLSVSVALGQTARITCSGDNIGSKYVHWYQQKPGQAPVLVIYGDNERPSGIPERFSGSNSGNTATLTISRAQAGDEADYYCQAADWVDFYVFGGGTKLTVLGIPPKIEALPSDISIDEGKVLTVACAFTGEPTPEVTWSCGGRKIHSQEQGRFHIENTDDLTTLIIMDVQKQDGGLYTLSLGNEFGSDSATVNIHIRSI
